Experimental data taken from patent publication US20030096757.

Test system: 19-mer (SEQ ID NO:11) cleavage domain peptide

Sequence of Active MMP-9 enzyme (chain, as listed by the source): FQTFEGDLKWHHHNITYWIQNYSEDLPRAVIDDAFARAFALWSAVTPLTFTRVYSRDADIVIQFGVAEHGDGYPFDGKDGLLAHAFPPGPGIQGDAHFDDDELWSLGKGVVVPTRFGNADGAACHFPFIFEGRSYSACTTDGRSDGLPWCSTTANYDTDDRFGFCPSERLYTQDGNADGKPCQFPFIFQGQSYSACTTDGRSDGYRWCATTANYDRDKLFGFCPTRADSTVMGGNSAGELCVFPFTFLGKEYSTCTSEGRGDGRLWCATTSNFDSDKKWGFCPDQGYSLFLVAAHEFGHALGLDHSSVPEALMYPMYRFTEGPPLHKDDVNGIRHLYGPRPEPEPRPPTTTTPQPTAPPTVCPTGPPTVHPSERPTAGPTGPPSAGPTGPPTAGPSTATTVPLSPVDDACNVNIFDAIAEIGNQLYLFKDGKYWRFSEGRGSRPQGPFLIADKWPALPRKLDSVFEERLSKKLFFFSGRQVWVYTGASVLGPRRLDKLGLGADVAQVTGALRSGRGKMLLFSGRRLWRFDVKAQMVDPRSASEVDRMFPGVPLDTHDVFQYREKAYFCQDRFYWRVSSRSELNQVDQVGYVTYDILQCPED

Active MMP-9 enzyme
extended time course of MMP-9 catalyzed hydrolysis of collagen: the 19-mer (SEQ ID NO:11) effectively inhibits the MMP-9 catalyzed hydrolysis of collagen to beyond 1000 minutes
